Experiments:
[1] = biological target: Kid toxin (endoribonuclease) of the parD locus of E. coli plasmid R1 (Escherichia coli plasmid R1) (UniProt P13976); test: cell-based or functional assay
[2] = biological target: T1, Kis antitoxin of the parD locus of E. coli plasmid R1 (wild type), P13975
T1 chain: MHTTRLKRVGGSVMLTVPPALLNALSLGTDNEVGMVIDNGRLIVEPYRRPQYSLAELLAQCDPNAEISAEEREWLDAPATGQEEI

Molecule	repA/copB ratio by Real Time-PCR, kis17kid sample against kiskid sample [1] [%]	cleavage of dnaB mRNA in vitro by purified Kid (4 pmols), alone or with Kis (6 pmols); primer extension [2]
Kis17, thermo-sensitive mutant Kis antitoxin (P18L) (from UniProt P13975 1-85)	38	–
Kid toxin (endoribonuclease) of the parD locus of E. coli plasmid R1 (protein) MERGEIWLVSLDPTAGHEQQGTRPVLIVTPAAFNRVTRLPVVVPVTSGGNFARTAGFAVSLDGVGIRTTGVVRCDQPRTIDMKARGGKRLERVPETIMNEVLGRLSTILT	–	dnaB-mRNA is cleaved by Kid in vitro, and that this effect is inhibited when Kis is added to the reaction

— patent US20090075270A1
